Measurements as given in PMC10055998.
Where two headings read alike, the source gives them in different places.

Experiments:
[1] = target: SV2C, the BoNT/A protein receptor, human (human (endogenous in hiPSC-derived motor neurons)) (UniProt Q496J9)
[2] = target: SV2C, the BoNT/A protein receptor, rat (rat (endogenous in primary rat spinal cord cells)) (UniProt Q9Z2I6)
[3] = target: SV2C, the BoNT/A protein receptor, rat (rat (endogenous in primary rat spinal cord cells)) (UniProt Q9Z2I6); remark: listed apart in the source

Sequence of UniProt Q9Z2I6 (Q9Z2I6 whole entry): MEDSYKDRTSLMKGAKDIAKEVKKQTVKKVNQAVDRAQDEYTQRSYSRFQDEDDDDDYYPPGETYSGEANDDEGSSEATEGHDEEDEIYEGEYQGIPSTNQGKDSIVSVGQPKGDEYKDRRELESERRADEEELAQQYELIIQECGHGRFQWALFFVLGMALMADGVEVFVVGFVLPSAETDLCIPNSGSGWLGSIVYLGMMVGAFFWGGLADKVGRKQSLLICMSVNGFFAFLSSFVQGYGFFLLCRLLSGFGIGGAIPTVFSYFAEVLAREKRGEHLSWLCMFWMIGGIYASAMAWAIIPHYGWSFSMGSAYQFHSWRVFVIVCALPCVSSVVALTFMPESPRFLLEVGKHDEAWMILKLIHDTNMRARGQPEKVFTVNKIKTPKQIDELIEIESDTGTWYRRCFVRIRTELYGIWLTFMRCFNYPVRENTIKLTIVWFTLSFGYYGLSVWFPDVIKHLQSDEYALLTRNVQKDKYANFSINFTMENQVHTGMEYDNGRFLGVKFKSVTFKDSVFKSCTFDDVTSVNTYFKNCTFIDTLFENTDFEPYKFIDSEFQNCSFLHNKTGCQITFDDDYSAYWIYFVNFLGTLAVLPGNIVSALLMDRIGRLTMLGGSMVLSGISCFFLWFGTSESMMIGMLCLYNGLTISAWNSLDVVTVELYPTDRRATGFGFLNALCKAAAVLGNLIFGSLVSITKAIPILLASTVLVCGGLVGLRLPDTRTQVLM
Sequence of UniProt Q496J9 (Q496J9 whole entry): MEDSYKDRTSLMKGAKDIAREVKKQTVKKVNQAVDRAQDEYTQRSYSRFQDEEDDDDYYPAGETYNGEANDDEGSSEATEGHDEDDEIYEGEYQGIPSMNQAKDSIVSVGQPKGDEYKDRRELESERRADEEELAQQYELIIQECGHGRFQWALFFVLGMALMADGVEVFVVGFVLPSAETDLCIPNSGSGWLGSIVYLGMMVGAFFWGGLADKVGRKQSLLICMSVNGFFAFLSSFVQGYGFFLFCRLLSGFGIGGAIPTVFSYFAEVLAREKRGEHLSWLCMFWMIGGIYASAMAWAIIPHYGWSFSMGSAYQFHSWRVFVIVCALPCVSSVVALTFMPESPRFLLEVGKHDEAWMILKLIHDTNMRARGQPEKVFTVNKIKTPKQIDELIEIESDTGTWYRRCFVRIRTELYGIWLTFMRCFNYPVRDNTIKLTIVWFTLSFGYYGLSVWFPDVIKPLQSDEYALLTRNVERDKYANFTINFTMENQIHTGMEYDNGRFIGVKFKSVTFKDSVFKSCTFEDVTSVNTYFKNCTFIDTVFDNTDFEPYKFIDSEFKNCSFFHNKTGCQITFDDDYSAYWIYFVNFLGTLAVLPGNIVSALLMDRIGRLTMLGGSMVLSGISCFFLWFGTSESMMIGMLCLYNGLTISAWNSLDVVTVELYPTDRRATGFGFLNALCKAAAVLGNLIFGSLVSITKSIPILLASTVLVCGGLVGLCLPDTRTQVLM

Botulinum neurotoxin subtype A1 (BoNT/A1), 150-kDa holotoxin (from UniProt P0DPI0) (natural protein)
EC50 MN (SNAP-25 cleavage in hiPSC derived motor neurons, 48 h) [1]: 0.07 pg/Well | EC50 RSC (SNAP-25 cleavage in primary rat spinal cord cells, 48 h) [2]: 1 pg/Well | EC50 RSC (SNAP-25 cleavage in primary rat spinal cord cells, 48 h) [3]: 1.1 pg/Well
